Results published in paper PMC10135725, “Vutiglabridin Modulates Paraoxonase 1 and Ameliorates Diet-Induced Obesity in Hyperlipidemic Mice” (Biomolecules, 2023).

Substrate: CCCCSC1CCC(=O)O1
Assay: purified protein
Format: biochemical, Homo sapiens
Settings: 50 mM Tris-HCl pH 8, 1 mM CaCl2, RT, no OX-LA, no vutiglabridin

B1: Recombinant PON1 (rePON1), carboxy-terminal hexahistidine tag (Homo sapiens) (protein)
chain: AKLIALTLLGMGLALFRNHQSSYQTRLNALREVQPVELPNCNLVKGIETGSEDLEILPNGLAFISSGLKYPGIKSFNPNSPGKILLMDLNEEDPTVLELGITGSKFDVSSFNPHGISTFTDEDNAMYLLVVNHPDAKSTVELFKFQEEEKSLLHLKTIRHKLLPNLNDIVAVGPEHFYGTNDHYFLDPYLQSWEMYLGLAWSYVVYYSPSEVRVVAEGFDFANGINISPDGKYVYIAELLAHKIHVYEKHANWTLTPLKSLDFNTLVDNISVDPETGDLWVGCHPNGMKIFFYDSENPPASEVLRIQNILTEEPKVTQVYAENGTVLQGSTVASVYKGKLLIGTVFHKALYCEL
notes: purified, C-terminal hexahistidine tag, expressed in CHO-K1 cells
For B1, which Km is on record?
The Km was 155.78 µM.

What about the Vmax of the same protein?
The Vmax was 92.3 µM/min.
